Experimental data reported in article PMC2536759 (Cancer research, 2008).
Like-named read-outs stand apart in the source and are kept apart here. One block for each binder: values may come before it.

Assays:
His-caspase-8(184-384) [1] = target: T1, His-caspase-8(184-384) (UniProt Q14790 184-384); experiment: pull-down
His-caspase-8(184-384) [2] = target: T1, His-caspase-8(184-384); experiment: pull-down; remark: listed apart in the source

T1 sequence (Q14790 184-384): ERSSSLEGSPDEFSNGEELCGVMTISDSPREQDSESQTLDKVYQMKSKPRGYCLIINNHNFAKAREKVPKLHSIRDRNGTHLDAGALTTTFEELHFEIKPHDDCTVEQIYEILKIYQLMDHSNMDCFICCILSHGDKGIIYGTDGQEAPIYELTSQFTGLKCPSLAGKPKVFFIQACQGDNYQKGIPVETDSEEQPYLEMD

binding result (His-caspase-8(184-384) [1]): binds
B1: synthetic MUC1-CD(1-20) peptide (peptide)
peptide: CQCRRKNYGQLDIFPARDTY

binding result (His-caspase-8(184-384) [2]): binds
B2: GST-MUC1-CD(1-20) (domain or fragment, human)
chain: CQCRRKNYGQLDIFPARDTY
